Molecular target: the molecule itself
Test: crystal structure

B1: MhuD (mycobacterial heme utilization, degrader), Rv3592, from Mycobacterium tuberculosis (enzyme)
chain: MPVVKINAIEVPAGAGPELEKRFAHRAHAVENSPGFLGFQLLRPVKGEERYFVVTHWESDEAFQAWANGPAIAAHAGHRANPVATGASLLEFEVVLDVGGTGKTA
binding result: binds
